Laboratory results published in the RNAGym collection of RNA variant scans (doi:10.1073/pnas.2313332121).
This sample holds only a part of the variants without activity.

B1: TPR 5TU (parent)
chain: GGAUCUUCUCGAUCUAACAAAAAAGACAAAUCUGCCACAAAGCUUGAGAGCAUCUUCGGAUGCAGAGGCGGCAGCCUUCGGUGGCGCGAUAGCGCCAACGUUCUCAACUAUGACACGCAAAACGCGUGCUCCGUUGAAUGGAGUUUAUCAUG

Variants of: B1
Test: polymerase ribozyme fitness, log enrichment relative to wild type (log ratio); higher = more active; in vitro selection for triplet polymerase activity
In short: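 One round of in vitro selection, in triplicate, was applied to PCR-built, transcribed mutant libraries of each subunit of a heterodimeric triplet polymerase ribozyme. The steps were annealing with a biotinylated primer, partner subunit and triplets, incubation frozen at −7 °C, gel excision of extended constructs, streptavidin-bead capture and RT-PCR. Fitness is the logarithm, base 2, of genotype enrichment over wild-type enrichment from inverse-variance-weighted replicate averages of Illumina-sequenced inputs and outputs, keeping genotypes with ≥10 input reads and ≥1 read per output.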

| Variant | polymerase ribozyme fitness (log ratio) |
| --- | --- |
| GGAUCUUUUCGAUCUAACAAAAAAGACAAAUCUGCCACAAAGCUUGAGAGCAUCUUCGGAUGCAGAGGCGGCGGCCUUCGGUAGCGCGAUAGCGCCAACGUUCUCAACUAUGACACGCAAAACGCGUGCUCCGUUGAAUGGAGUUUAUCAUG [C8U A73G G83A] | ≤ -4.2 |
| GGAUCUUUUCGAUCUCACUAAAAAGACAAAUCUGCCACAAAGCUUGAGAGCAUCUUCGUGUGCAGAGGCGGCAGCCUUCGGUGGCGCGAUAGUGCCAACGUUCUCAACUAUGACACGCAAAACGCGUGCUCCGUUGAAUGGAGUUUAUCAUG [C8U A16C A19U G59U A60G C93U] | ≤ -4.2 |
| GGAUCUUUUCGAUCUAACAAAAAAGACAAAUCUGCCACAAACCUUGAGAGCAUCUUCGGAUGCAGAGGCGGCAGCCUUCGGUGGAGCGAUAGCGCCAACGUUCUCAACUAUGACACGCAAAACGCGUGCUCCGUUGAAUGGAGUUUAUCAUG [C8U G42C C85A] | ≤ -4.2 |
| GGAUCUUUUCGAUCUAACAAAAAAGACAAAUCUGCCACAAAGCUUGAGAGCAUCUUCGGAUGUAGAGGCGGCAGCCUUCAGUGCCGCGAUAGCGCUAACGUUCUCAACUAUGACACGCAAAACGCGUGCUCCGUUGAAUGGAGUUUAUCAUG [C8U C63U G80A G84C C96U] | ≤ -4.2 |
| GGAUCUUUUCGAUCUAACAAAAAAGACAAAUCUGCCACUAAGCUUGAUAGCAUCUUCGGAUGCAGAGGCGGCAGCCUUCGGUGGCGCGAUAGCGCCAACGUUCUCAACUAUGACACGCAAAACGCGUGCUCCGAUGAAUGGAGUUUAUCAUG [C8U A39U G48U U134A] | ≤ -4.2 |
| GGAUCUUUUCGAUCUAACAAAUAAGACAAAUCUGCCACAAAGCUUGAGAGUAUCUUCGGAUACAGAGGCGGCAGCCUUCGGUGGCGCGAUAGGGCCAACGUUAUGAACUAUGACACGCAAAACGCGUGCUCCGUUGAAUGGAGUUUAUCAUG [C8U A22U C51U G62A C93G C103A C105G] | ≤ -4.2 |
| GGAUCUUUUCGAUCUAACAAAAAAGACAAAUCUGCCACAAAGCUUGAGAGCAUCUUCGGAUGCAGAGGCGGCAGCCUUCGGUGUCGCGAUAGCGCCAACGUUCUCAACUAUGACACUCAAAACGCGUGCUCCGUUGAAUCGAGUUGAUCAUG [C8U G84U G117U G140C U146G] | ≤ -4.2 |
| GGAUCUUUUCGAUCUAACAAAAAAGACAAAUCUGCCAGAAAGCUUGAGAGCAUCUUCGGCUGCAGAGGCGGCAGCCUUCGGUGGCGCGAUAGCGCCAACGUUCUCAGCUAUGACACGCAAAACGCGUGCUCCGUUGAAUGCAGUUUAUCACG [C8U C38G A60C A107G G141C U151C] | ≤ -4.2 |
| GGAUCUUUUCGAUCUAACAAAAAAGACAAAUCUGCCACAAAGCUUGAGAGCAUCUUCGGAUGCAGAGGCGGCAGCCUUCGGUGGCGCGAUAGCGCCAACGUUCUCAACUAUGACAAGCAAAACGCGUGCUCCGUUGAAUGGAGUUUAUCAUG [C8U C116A] | -2.08 |
| GGAUCUUUUCGAUCUAACAAAAAAGACAAAUCUGCCACAAAGCUUGAGAGCAUCUUCGGAUGCAGAGGCGGCAGCCUUCGGUGGUGCGAUAGCGCCAACGUUCUCAACUAUGACACGCAAAACGCGUGCUCCGUUGAAUGGAGUUUAUCAUG [C8U C85U] | -3.19 |
| GGAUCUUUUCGAUCUAACAAAAAAGACAAAUCUGCCACAAAGCUUGAGAGCAUCUUCGGAUGCAGAGGCGGCAGCCUUCGGUGGAGCGAUAGCGCCAACGUUCUCAACUAUGACACGCAAAACGCGUGCUCCGUUGAAUGGAGUUUAUCAUG [C8U C85A] | -2.75 |
| GGAUCUUUUCGAUCUAACAAAAAAGGCAAAUCUGCCACAAAGCUUGAGAGCAUCUACGGAUGCAGAGGCGGCAGCGUUCGGUGGCGCGAUAGCGCCAACGUUCUUCACUAUGACACGCAAAAUGCGUGCUCCGUUGAAUGGAGUUUAUCAUG [C8U A26G U56A C76G C105U A106C C123U] | ≤ -4.2 |
| GGAUCUUUUCGAUCUAACAAAAAAGACAAAUCUGCCACAAAGCUUGAGAGCAUCUUCGGAUGCAGAGGCGGCAGCCUUCGGUGGCGCGAUAGCGCCAACGUUCUCAACUAUGACACGCAAAACGCGUGCUCCGUUGAAUGGAGUUUAUCAUG [C8U] | -2.39 |
| GGAUCUUUUCAAUCUAACAAAAAAGACAAAUCUGCCACAAAGCUUGAGAGCAUCUUCGGAUGCAGAGGCGGCAGCCUUCGGUGGCACGAUAGCGCCAACGUUCUCAACCAUGACACGCAAAAAGCGUGCUCGGUUGAAUGGAGUUUAUCAUG [C8U G11A G86A U109C C123A C132G] | ≤ -4.2 |
| GGAUCUUUAUGAUCUAGCAAAAAAGACAAAUCUGCCACAAAGCUUGAGAGCAUCUUCGGAUGCAGGGGCGGCAGCCUUCGGUGGCGCGAUCGCGCCAACGUUCUCAACUAUGACACGCAAAACGCGUGCUCCGUUGAAUGGAGUUUAUCAUG [C8U U9A C10U A17G A66G A91C] | ≤ -4.2 |
| GGAUCUUUUCGAUCUAACACAAAAGACAAAUCUGCCACAAAGCUUGAGACCAUCUUCGGAUGCAGAGGCGACAGCCUUCGGUGGCGCGAUAGCGCAAGCGUUCUCAACUAUGAUACGCAAAACGCGUGCUCCGUUGAAUGGAGUUUACCAUG [C8U A20C G50C G71A C96A A98G C114U U148C] | ≤ -4.2 |
| GGAUCUUUUCGAUCUAACAGAAAAGUCAAAUCUGCCACAAAGCUUGAGAGCAUCUACGGAUGCAGAGGCGGCAGCCUUCGGUGGCGCGAUAGCGCUAACGUUCUUAACUAUGACACGCAAAACGCGUCCUCCGUUGAAUGGAGUUUAUCAUG [C8U A20G A26U U56A C96U C105U G128C] | ≤ -4.2 |
| GGAUCUUUUCGAUCUAACAAACAAGACAAAUCUGCCACGAAGCUUGAGAGCAUCUUCGGAUGCAGAGGCGGCAGCCUUCGGUGGGGCGAUAGCGCCAACGUUCUCGACUAUGACACGCGAAACGCGUGCUCCGUUGAAUGGAGUUUAUCAUG [C8U A22C A39G C85G A106G A119G] | ≤ -4.2 |
| GGAUCUUUUCGAUCUAGCAAAAAAGACAAAUCUGCAACAAAGCUUGAGACCAUCUUCGGAUGCAGAGGCGGCAGCCUUCGGUGGCGCGAUAGCGCCAACGUUCUCAACUAUGACGCGCAAAACGCGUGCUCCGUUGAAUGGAGUUUAUCAUG [C8U A17G C36A G50C A115G] | ≤ -4.2 |
